The values below come from US20250051437A1 (University of California, published 2025).

Experiment [1] has as its target T1, human cadherin-17 (CDH17), endogenously expressed on human cancer cell lines (LS513, SNU-C1, PaTu8988s, … (human, UniProt Q12864 23-832)).
T1 construct: also called LS513 (Colon, CDH17+); HPAF2
Description: indirect flow cytometry (iQue) on LS513 cells (CDH17+), anti-His secondary antibody. The protocol: Bispecific antibodies and scFv fragments were assessed for their binding effect to CDH17 positive cells by an indirect flow cytometry assay iQue® (Sartorius, Gottingen, Germany). The asssays were performed with CDH17 positive LS513 cells or CDH17 negative M202 cells using the primary antibody and fluorochrome-labeled anti-His secondary antibody using the iQue® where FL4-H values acquired by iQue® software were reported.
(Flow cytometry measures light scatter and fluorescence of single cells or particles in a stream.)

Experiment [2] addresses T1, human cadherin-17 (CDH17), endogenously …. Description: flow cytometry of the ADC on LS513 cells (CDH17+), 20 µg/ml.
Experiment [3] deals with T2, human CDH17-mGFP fusion protein overexpressed on HEK293T cells (clone G11) (human, UniProt Q12864 23-832).
T2 construct: also called HEK293T CDH17mGFP Clone G11; HEK293T Human CDH17mGFP G11; not shown: mGFP fluorescent protein fused to CDH17
Description: KinExA, cell-based, HEK293T CDH17mGFP clone G11. As to the method:
(§1) The cell-based antibody affinity (KD) of the anti-CDH17 antibodies was measured by KinExA 4000 (Sapidyne Instrument, Boise, Idaho). Briefly, HEK293T overexpressing CDH17-fluorescent protein fusion (i.e., human CDH17-mGFP, monkey CDH17-mGFP, mouse CDH17-mGFP or rat CDH17-mGFP) were detached with Versene and equilibrated with either 50 pM, 200 pM, 20 nM, or 50 nM antibody in 2% FBS/DMEM at 4° C. overnight. The cell concentration started at 5×10⁶ cells/mL or 1×10⁷ cells/mL and 2-fold serial dilutions were performed up to 10 points. The next day, the cells were centrifuged at 1500 rpm for 10 min and the supernatants were saved. […] In contrast, while the humanized anti-CDH17 antibody, 07-0653-h43, fails to bind mouse CDH17 protein, it binds rat CDH17 protein equally well as to human and monkey CDH17 protein such that its Kp is less than about 1 nM for human, monkey and rat CDH17 proteins with overlapping 95% confidence interval values.
(In general: A kinetic exclusion assay measures how much of one partner remains free in solution.)

For experiment [4], the target named is T1, human cadherin-17 (CDH17), endogenously …. The experiment is described as follows: flow cytometry (iQue) on SNUC1 cells, 0.2 µg Ab.
For experiment [5] the target is unchanged. The experiment is described as follows: flow cytometry (iQue) on LS513 cells, 1 µg Ab.
Experiment [6] shares this target. The experiment is described as follows: flow cytometry (iQue) on PATU8988S cells, 1 µg Ab.
Experiment [7] has as its target T2, human CDH17-mGFP fusion protein …. The experiment is described as follows: KinExA, cell-based, HEK293T human CDH17mGFP G11 (same value as r12). The protocol:
as §1

Experiment [8] shares this target. Description: flow cytometry (iQue) on HEK293T CDH17 mGFP clone G11 (human), 1 µg Ab.
Experiment [9] concerns the target T3, mouse CDH17-mGFP fusion protein overexpressed on HEK293T cells (mouse, UniProt Q9R100 26-827).
T3 construct: also called HEK293T Mouse CDH17mGFP mass; not shown: mGFP fluorescent protein
The experiment is described as follows: flow cytometry (BD C6) on HEK293T Mouse CDH17 mGFP cells. As to the method:
(§2) To determine relative antigen binding strengths of the humanized antibodies, FACS assays were carried out as essentially described in Example 1. […] Using a BD Biosciences Accuri™ C6 Flow Cytometer (San Jose, CA), antibody binding based on Alexa Fluor® 647 fluorescence was measured in the FL4-H channel and fusion protein overexpression based on GFP fluorescence was measured in the FL1-H channel.

In experiment [10] the target is T2, human CDH17-mGFP fusion protein …. The experiment is described as follows: KinExA, cell-based, HEK293T overexpressing human CDH17-mGFP (FIG. 16). The protocol:
as §1

Experiment [11] has as its target T4, rat CDH17 fused to moxGFP, overexpressed on HEK293T cells (rat, UniProt P55281 22-827).
T4 construct: whole, on cells; also called HEK293T Rat CDH17mGFP mass pop; rat CDH17-moxGFP
The experiment is described as follows: flow cytometry (BD C6) on HEK293T Rat CDH17 moxGFP cells. As to the method:
as §2

Experiment [12] addresses T3, mouse CDH17-mGFP fusion protein …. Description: flow cytometry on HEK293T mouse CDH17mGFP mass population, 20 µg/ml.
Experiment [13] addresses T1, human cadherin-17 (CDH17), endogenously …. Description: flow cytometry (iQue) on SNUC1 cells, 1 µg Ab.
Experiment [14] shares this target. The experiment is described as follows: flow cytometry (iQue) on LS513 cells, 0.2 µg Ab.
Experiment [15] has the same target. Description: flow cytometry on LS513 cells (CDH17+), 20 µg/ml.
For experiment [16] the target is unchanged. Description: flow cytometry (iQue) on PATU8988S cells, 0.2 µg Ab.
For experiment [17] the target is unchanged. Description: KinExA, cell-based, SNUC1 cells.
Experiment [18] concerns the target T5, recombinant CDH17 extracellular domain (ECD) with 6x His tag (human, UniProt Q12864 23-787).
T5 construct: also called Recombinant CDH17 ECD-6xhis tag
Description: ELISA on recombinant CDH17 ECD-6xHis. A general note: ELISA stands for enzyme-linked immunosorbent assay.

Experiment [19] addresses T2, human CDH17-mGFP fusion protein …. The experiment is described as follows: flow cytometry (iQue) on HEK293T CDH17 mGFP clone G11 (human), 0.2 µg Ab.
Experiment [20] has as its target T4, rat CDH17 fused to moxGFP, …. The experiment is described as follows: flow cytometry on HEK293T rat CDH17mGFP mass population, 20 µg/ml.
Experiment [21] addresses T2, human CDH17-mGFP fusion protein …. The experiment is described as follows: flow cytometry on HEK293T human CDH17mGFP G11, 20 µg/ml.

T4 sequence (P55281 22-827): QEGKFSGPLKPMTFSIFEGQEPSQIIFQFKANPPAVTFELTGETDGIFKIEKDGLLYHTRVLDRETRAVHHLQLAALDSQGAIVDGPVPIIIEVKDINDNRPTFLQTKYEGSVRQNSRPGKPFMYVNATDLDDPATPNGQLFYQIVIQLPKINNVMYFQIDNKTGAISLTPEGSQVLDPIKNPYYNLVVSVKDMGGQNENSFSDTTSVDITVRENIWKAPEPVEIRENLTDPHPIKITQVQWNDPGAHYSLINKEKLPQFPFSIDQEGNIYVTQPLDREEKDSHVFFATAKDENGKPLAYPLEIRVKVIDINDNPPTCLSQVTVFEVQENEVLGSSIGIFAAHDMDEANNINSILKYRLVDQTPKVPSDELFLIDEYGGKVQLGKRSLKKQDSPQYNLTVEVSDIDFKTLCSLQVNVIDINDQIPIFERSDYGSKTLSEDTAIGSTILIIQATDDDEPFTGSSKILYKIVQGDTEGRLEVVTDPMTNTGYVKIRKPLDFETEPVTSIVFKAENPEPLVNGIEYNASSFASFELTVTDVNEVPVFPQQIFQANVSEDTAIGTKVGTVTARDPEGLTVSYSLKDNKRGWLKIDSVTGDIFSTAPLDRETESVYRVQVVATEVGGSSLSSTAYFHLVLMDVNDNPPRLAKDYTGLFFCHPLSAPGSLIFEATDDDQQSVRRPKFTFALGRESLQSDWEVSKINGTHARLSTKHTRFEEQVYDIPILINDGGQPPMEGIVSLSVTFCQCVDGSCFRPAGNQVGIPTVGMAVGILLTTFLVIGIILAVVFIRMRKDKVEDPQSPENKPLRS
T3 sequence (Q9R100 26-827): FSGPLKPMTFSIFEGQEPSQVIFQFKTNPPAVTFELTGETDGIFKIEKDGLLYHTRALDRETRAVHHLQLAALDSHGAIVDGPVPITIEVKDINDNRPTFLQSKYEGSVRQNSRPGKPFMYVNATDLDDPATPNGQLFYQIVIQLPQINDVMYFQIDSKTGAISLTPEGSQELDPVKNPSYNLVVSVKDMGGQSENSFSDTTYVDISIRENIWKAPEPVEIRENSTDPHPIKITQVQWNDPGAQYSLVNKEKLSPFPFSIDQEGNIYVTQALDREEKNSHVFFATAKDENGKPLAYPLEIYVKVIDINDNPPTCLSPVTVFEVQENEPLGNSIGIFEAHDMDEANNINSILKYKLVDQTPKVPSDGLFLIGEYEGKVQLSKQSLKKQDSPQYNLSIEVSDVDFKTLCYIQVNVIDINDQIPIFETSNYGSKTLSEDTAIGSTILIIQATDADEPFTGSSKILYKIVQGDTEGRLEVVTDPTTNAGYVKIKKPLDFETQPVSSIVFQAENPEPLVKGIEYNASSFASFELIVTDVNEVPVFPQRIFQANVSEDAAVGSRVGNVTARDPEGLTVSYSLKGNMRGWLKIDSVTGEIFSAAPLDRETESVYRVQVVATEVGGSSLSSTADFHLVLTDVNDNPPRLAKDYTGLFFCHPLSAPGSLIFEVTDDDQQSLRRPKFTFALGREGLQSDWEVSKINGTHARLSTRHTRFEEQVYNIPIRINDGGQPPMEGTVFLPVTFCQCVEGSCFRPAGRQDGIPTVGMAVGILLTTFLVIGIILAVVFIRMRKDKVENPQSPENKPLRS

B1: 07-0653-h43scFv anti-CDH17 scFv (scFv)
scFv: DIQLTQSPSSLSASVGDRVTITCRATSSLSYIHWYQQKPGKAPKPLIYEISKLASGVPSRFSGSGSGTDYTLTISSLQPEDFATYYCQQWNYPFTFGQGTKLEIKGGGGSGGGGSGGGGSQVQLVQSGAEVKKPGASVKVSCKASGYTFTDYYMNWVRQAPGQGLEWMGVIYPYSGGIGYAQKFQGRVTMTVDKSTSTAYMELSSLRSEDTAVYYCARGRGDYFGLFDFWGQGTTVTVSSHHHHHH
notes: VL-linker-VH; also called CDH17-653-h43scfv
Turning to B1, the FL4-H in experiment [1] was determined as 2.21e+06.

B2: 07-0653-h43-VC-PAB-MMAE (antibody, human IgG1, DAR about 4, V domains shown)
VH: QVQLVQSGAEVKKPGASVKVSCKASGYTFTDYYMNWVRQAPGQGLEWMGVIYPYSGGIGYAQKFQGRVTMTVDKSTSTAYMELSSLRSEDTAVYYCARGRGDYFGLFDFWGQGTTVTVSS
VL: DIQLTQSPSSLSASVGDRVTITCRATSSLSYIHWYQQKPGKAPKPLIYEISKLASGVPSRFSGSGSGTDYTLTISSLQPEDFATYYCQQWNYPFTFGQGTKLEIK
modifications: MC-VC-PAB-MMAE on free thiols of cysteines from reduced interchain disulfides; positions not given; MC-VC-PAB-MMAE on free thiols of cysteines from reduced interchain disulfides; average 4 MMAE per antibody; positions not given
notes: also called CDH17-ADC-653-h43; 07-0653-h43-MMAE
With B2, the “ADC Binding Activity by Flow Cytometry” value in [2] came out at 35100.

B3: humanized anti-CDH17 antibody 07-0646-h7 (antibody, human IgG1, V domains shown)
VH: QVQLVQSGAEVKKPGASVKMSCKASGYTFTSYNMHWVRQAPGQGLEWIGAIYPGNGDTSYAQKFQGRATLTVDTSTSTAYMELSSLRSEDTAVYYCARGRGRYFEYWGQGTTLTVSS
VL: DIQLTQSPSSLSASVGDRVTMTCRASSSVSSSYLHWYQQKPGKAPKLLIYSTSNLASGVPSRFSGSGSGTDYTLTISSVQPEDFATYYCQQYDSSPSTFGQGTKLEIK
notes: C-terminal lysine kept in the humanized antibodies; also called CDH17-646-h7; 07-646-h7
On to B3, for which the Kd was 0.817 nM in experiment [3], 0.817 nM in experiment [7], < 1 nM in [10] and 0.532 nM in experiment [17]. In addition, the “Antibody Binding Activity by Flow iQue” value in [4] is 120000; in experiment [5], 2.66e+06; in experiment [6], 95600; in [8], 181000; in [13] it was 74900; in [14], 2.86e+06. The “Antibody Binding Activity by Flow iQue” value in [16] came out at 21400; in [19], 50500. The binding result in [9] and in [11] was “no binding (tested: 1 µg)” throughout. Besides, the figures for the “Cross Reactivity by Flow” value in experiment [12], in [20] and in experiment [21] were 2510, 2200 and 50500, respectively. For the same molecule, the “Antibody Binding Activity by Flow Cytometry” value in experiment [15] amounted to 47200. The EC50 in experiment [18] came out at 0.73 nM.

B4: 07-0646-h7-VC-PAB-MMAE (antibody, human IgG1, DAR about 4, V domains shown)
VH: B3 VH
VL: B3 VL
modifications: MC-VC-PAB-MMAE on free thiols of cysteines from reduced interchain disulfides; positions not given; MC-VC-PAB-MMAE on free thiols of cysteines from reduced interchain disulfides; average 4 MMAE per antibody; positions not given
notes: also called CDH17-ADC-646-h7; 07-0646-h7-MMAE
For the molecule B4, the “ADC Binding Activity by Flow Cytometry” value in [2] is 73500.

B5: 07-0646-h7scFv anti-CDH17 scFv (scFv)
scFv: DIQLTQSPSSLSASVGDRVTMTCRASSSVSSSYLHWYQQKPGKAPKLLIYSTSNLASGVPSRFSGSGSGTDYTLTISSVQPEDFATYYCQQYDSSPSTFGQGTKLEIKGGGGSGGGGSGGGGSQVQLVQSGAEVKKPGASVKMSCKASGYTFTSYNMHWVRQAPGQGLEWIGAIYPGNGDTSYAQKFQGRATLTVDTSTSTAYMELSSLRSEDTAVYYCARGRGRYFEYWGQGTTLTVSSHHHHHH
notes: VL-linker-VH; also called CDH17-646-h7scfv; 07-0646-7scFv
In experiment [1], B5 displayed an FL4-H of 864000.

B6: 07-0663-h7-VC-PAB-MMAE (antibody, human IgG1, kappa, DAR about 4, V domains shown)
VH: QVQLVQSGAEVKKPGSSVKISCKVSGYTFTDHTIHWMRQAPGQGLEWIGYIFPRDDIVVYAQKFQGRATLTADKSTSTAYMELSSLRSEDTAVYYCARPPYYYSRNFYFDYWGQGTTLTVSS
VL: DIQMTQSPSSLSASVGDRVTITCRVSSIISSSKLHWYQQKPGKAPKPLIYGTSTLASGVPSRFSGSGSGTDYTLTISSLQPEDFATYYCQQWSNYPFTFGQGTKLEIKR
modifications: MC-VC-PAB-MMAE on free thiols of cysteines from reduced interchain disulfides; positions not given; MC-VC-PAB-MMAE on free thiols of cysteines from reduced interchain disulfides; average 4 MMAE per antibody; positions not given
In the case of B6, the “ADC Binding Activity by Flow Cytometry” value in experiment [2] was found to be 67400.

B7: 07-0663-h7scFv anti-CDH17 scFv (scFv)
scFv: DIQMTQSPSSLSASVGDRVTITCRVSSIISSSKLHWYQQKPGKAPKPLIYGTSTLASGVPSRFSGSGSGTDYTLTISSLQPEDFATYYCQQWSNYPFTFGQGTKLEIKGGGGSGGGGSGGGGSQVQLVQSGAEVKKPGSSVKISCKVSGYTFTDHTIHWMRQAPGQGLEWIGYIFPRDDIVVYAQKFQGRATLTADKSTSTAYMELSSLRSEDTAVYYCARPPYYYSRNFYFDYWGQGTTLTVSSHHHHHH
notes: VL-linker-VH
With B7, the FL4-H in experiment [1] amounted to 2.05e+06.

By Kd is commonly meant the constant that tells how readily two partners part at equilibrium. The term EC50 denotes the midpoint of the concentration-response curve.
